Test results: patent US9993566B2, “SEZ6 modulators and methods of use” (AbbVie Stemcentrx LLC, priority 2013, dated 2018)

Experiments:
LU124OXAHIp3 cells = test: Oxaliplatin sensitivity, Cell Titer Glo dose response; assay type: cell-based, human; details: after further passage through mice without oxaliplatin
Description: (§1) Cisplatin and its derivatives, including oxaliplatin are the chemotherapeutic standard of care for SCLC. An oxaliplatin-resistant SCLC PDX line was developed due to concerns that cisplatin may not be stable in tissue culture medium (Schuldes et al., 1997, PMID: 9128988). The oxaliplatin-resistant SCLC line was generated by isolating human cells from LU124p2, a SCLC PDX line that had been passaged subcutaneously twice through NOD.SCID mice. LU124p2 tumors were resected from mice after reaching 800-2,000 mm^3, dissociated into single cell suspensions using art-recognized enzymatic digestion techniques (see, for example, US2007/0292414), and depleted of murine cells. The cells were then washed and cultured in 5% oxygen and serum-free medium and immediately treated with 1 μM of oxaliplatin. After seven days of exposure to oxaliplatin, the cells were washed and allowed to recover for two weeks in standard serum-free media with fresh renewal of medium twice a week. After the recovery period, the cells were washed and re-plated into a new flask with 1 μM of oxaliplatin for seven more days, followed by a final wash and a two week recovery period. The resulting cell line was termed LU124OXAHIp2. Single cell suspensions were generated using Versene (Invitrogen). Some of the cells were injected into mice to propagate the LU124OXAHIp2 cell line, while other cells were cultured in vitro to test sensitivity to oxaliplatin.
(§2) Oxaliplatin sensitivity of LU124OXAHIp2 was tested as follows: LU124OXAHIp2 cells were plated onto 96-well plates and treated with a titration of oxaliplatin in serum-free medium as is standard in the art. After seven days in culture, cells were harvested using Cell Titer Glo® (Promega) as per the manufacturer's instructions and dose response curves were obtained. […] To determine whether the resistance was stable, LU124OXAHIp2 cells were passaged again through immunocompromised mice to yield the cell line called LU124OXAHIp3.

LU124OXAHIp2 cells = test: as above; assay type: cell-based, human; details: seven days in culture, oxaliplatin-resistant line
Description: as §1, §2

[1] = test system: LU124p2 parental cell line; test: as above; assay type: cell-based, human; details: seven days in culture
Description: as §1, §2

SEZ6 ECD = target: T1, SEZ6 ECD (Homo sapiens, UniProt Q53EL9); test: Fine epitope mapping (phage display peptide library or yeast-displayed SEZ6 ECD mutants); assay type: binding; details: epitope conformational (discontinuous) or linear
T1 construct: SEZ6 extracellular domain (amino acids 1-904); expressed in transfected cells; host or cells: yeast (surface display, Cochran et al. protocol)

cynomolgus SEZ6 = test: Flow cytometry cross reactivity, yeast displaying extracellular domain of cynomolgus SEZ6; assay type: binding; details: 5 μg/mL antibody
In short: (§3)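 Neuro2a (mouse SEZ6), RIN-m5F (rat SEZ6) or yeast displaying cynomolgus SEZ6 extracellular domain, 1×10^5 cells, incubated 30 min with 5 μg/mL antibody in PBS/2% FCS. Detection by DyLight 649 anti-mouse IgG Fc secondary (1:200, 15 min), then flow cytometry, with DAPI for mammalian cells only.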

LU50 LCNEC tumor = test: NTX tumor growth in immunodeficient mice, murine ADCs; assay type: in vivo, human; details: three injections of 1 mg/kg intraperitoneally over seven days, NOD/SCID mice
Method: Patient-derived NTX tumors were grown subcutaneously in the flanks of female NOD/SCID recipient mice using art-recognized techniques. Tumor volumes and mouse weights were monitored twice per week. When tumor volumes reached 150-250 mm^3, mice were randomly assigned to treatment groups and injected intraperitoneally with SC17-ADC1 or a control MsIgG1-ADC1. Mice were given three injections of 1 mg/kg (indicated by the vertical lines in FIG. 17B) over a period of seven days. Following treatment, tumor volumes and mouse weights were monitored until tumors exceeded 800 mm^3 or mice became sick.

rat SEZ6 = test: Flow cytometry cross reactivity, RIN-m5F cells; assay type: binding; details: 5 μg/mL antibody
rat SEZ6, sequence (as listed by the source): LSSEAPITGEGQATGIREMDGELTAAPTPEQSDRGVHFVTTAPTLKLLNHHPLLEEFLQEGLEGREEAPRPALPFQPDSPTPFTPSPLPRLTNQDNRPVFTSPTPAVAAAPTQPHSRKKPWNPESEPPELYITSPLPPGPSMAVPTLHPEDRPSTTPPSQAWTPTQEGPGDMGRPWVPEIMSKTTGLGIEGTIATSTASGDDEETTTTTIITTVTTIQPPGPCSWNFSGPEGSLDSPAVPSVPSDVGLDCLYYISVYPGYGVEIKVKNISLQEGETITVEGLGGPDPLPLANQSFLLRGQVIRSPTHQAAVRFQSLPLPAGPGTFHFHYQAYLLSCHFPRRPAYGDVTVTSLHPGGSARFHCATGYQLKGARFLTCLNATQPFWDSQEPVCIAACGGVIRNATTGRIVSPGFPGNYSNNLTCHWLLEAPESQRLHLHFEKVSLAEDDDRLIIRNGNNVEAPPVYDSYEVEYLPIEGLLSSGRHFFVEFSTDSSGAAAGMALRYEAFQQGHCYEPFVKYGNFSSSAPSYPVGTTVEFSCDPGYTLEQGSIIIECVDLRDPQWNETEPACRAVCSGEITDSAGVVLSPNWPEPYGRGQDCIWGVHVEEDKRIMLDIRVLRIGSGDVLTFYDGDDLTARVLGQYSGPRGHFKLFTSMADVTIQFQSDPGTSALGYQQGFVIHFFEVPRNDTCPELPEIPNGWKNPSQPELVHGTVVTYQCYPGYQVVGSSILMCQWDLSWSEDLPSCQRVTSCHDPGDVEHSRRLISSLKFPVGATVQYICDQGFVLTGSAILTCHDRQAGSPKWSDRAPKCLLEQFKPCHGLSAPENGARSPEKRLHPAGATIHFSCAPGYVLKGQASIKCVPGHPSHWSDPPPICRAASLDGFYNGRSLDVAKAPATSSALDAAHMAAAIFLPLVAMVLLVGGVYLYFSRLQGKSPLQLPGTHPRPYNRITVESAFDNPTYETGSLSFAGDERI
In short: as §3

SEZ6 = target: T2, SEZ6 (Homo sapiens, UniProt Q53EL9); test: Immunohistochemistry validation on FFPE cell pellets; assay type: binding; details: FFPE sections
T2 construct: produce a cDNA fragment encoding the mature human SEZ6 protein; IgK signal peptide (N); T2A peptide (residue left after ribosomal skipping; GFP is a separate protein) (C); expressed in transfected cells; host or cells: HEK-293T (lentiviral transduction, pCDH-EF1-MCS-T2A-GFP)
Method: Immunohistochemistry (IHC) was performed on PDX tumors to confirm that SEZ6 is expressed on the surface of certain PDX tumors; and in order to determine the location of the SEZ6 protein in the tumor architecture. IHC was performed on formalin fixed paraffin embedded (FFPE) tissue sections using an indirect detection method which included murine monoclonal primary antibody against SEZ6 (SC17.140), mouse specific biotin conjugated secondary antibodies, avidin/biotin complex coupled with horse radish peroxidase, and DAB detection (Nakene P K 1968; 16:557-60). […] Specificity was further confirmed by competing signal with a 5 molar excess of purified recombinant SEZ6 on HEK-293T cells overexpressing human SEZ6 and NTX tumors that were shown by IHC to express SEZ6 (data not shown).

SEZ6L2 = target: T3, SEZ6L2 (Homo sapiens, UniProt Q6UXD5, INS830AYEELLDNRKLEV); test: ELISA cross reactivity to family member SEZ6L2; assay type: binding; design: key to binds SEZ6 family member SEZ6L2 (dagger): *: antibodies that bind SEZ6 family members SEZ6L and SEZ6L2 are designated with an asterisk and/or a dagger, respectively; †: antibodies that bind SEZ6 family members SEZ6L and SEZ6L2 are designated with an asterisk and/or a dagger, respectively
T3 construct: IgK signal peptide (N, cleaved yes); made in house; host or cells: HEK-293T or CHO-S
T3 sequence (Q6UXD5 with tags, fused parts or gaps with the stated changes): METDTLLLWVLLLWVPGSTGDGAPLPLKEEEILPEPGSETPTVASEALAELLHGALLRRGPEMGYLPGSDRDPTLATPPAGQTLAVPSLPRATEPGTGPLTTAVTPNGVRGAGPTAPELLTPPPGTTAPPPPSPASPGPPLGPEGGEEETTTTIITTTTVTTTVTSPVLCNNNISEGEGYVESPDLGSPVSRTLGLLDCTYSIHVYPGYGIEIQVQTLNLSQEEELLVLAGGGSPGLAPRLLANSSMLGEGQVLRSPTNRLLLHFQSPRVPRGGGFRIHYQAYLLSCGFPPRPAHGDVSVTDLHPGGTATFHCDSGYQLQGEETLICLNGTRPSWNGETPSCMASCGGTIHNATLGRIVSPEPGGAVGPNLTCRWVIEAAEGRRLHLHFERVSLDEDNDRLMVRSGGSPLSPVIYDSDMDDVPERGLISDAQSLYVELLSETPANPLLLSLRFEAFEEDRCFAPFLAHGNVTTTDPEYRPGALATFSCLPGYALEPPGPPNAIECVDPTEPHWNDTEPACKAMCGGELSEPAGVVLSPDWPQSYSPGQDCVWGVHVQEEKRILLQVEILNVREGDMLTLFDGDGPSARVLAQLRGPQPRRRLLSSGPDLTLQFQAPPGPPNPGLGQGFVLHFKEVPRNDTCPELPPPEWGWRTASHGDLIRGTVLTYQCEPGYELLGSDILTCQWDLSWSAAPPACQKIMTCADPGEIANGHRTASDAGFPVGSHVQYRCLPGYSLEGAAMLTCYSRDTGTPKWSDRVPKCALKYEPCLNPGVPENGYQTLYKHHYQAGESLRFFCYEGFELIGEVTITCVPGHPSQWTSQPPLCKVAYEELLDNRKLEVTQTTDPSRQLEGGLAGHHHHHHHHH
Method: To determine cross reactivity to family member proteins, SEZ6L and SEZ6L2, an ELISA-based assay was used. Plates were coated with SEZ6, SEZ6L, or SEZ6L2 proteins at 0.2 μg/mL in PBS overnight. After washing with PBS containing 0.05% (v/v) Tween 20 (PBST), the wells were blocked with 2% (w/v) BSA in PBS (PBSA), 100 μL/well for 1 hour at room temperature. Antibody was then added at 1 μg/mL in 100 μL PBSA for 1 hour at room temperature. After washing with PBST, 100 μL/well HRP-labeled goat anti-mouse IgG diluted 1:2,000 in PBSA for 1 hour at room temperature. The plates were washed and 100 μL/well of the TMB substrate solution (Thermo Scientific 34028) was added for 15 minutes at room temperature. After developing, an equal volume of 2M H2SO4 was added to stop substrate development and analyzed by spectrophotometer at OD 450. […] As discussed above, such pan-SEZ6 antibodies are compatible with the teachings herein and may be used in conjunction with the disclosed methods.

mouse SEZ6 = target: T4, mouse SEZ6 (Mus musculus, UniProt Q7TSK2); test: Flow cytometry cross reactivity, Neuro2a cells; assay type: binding; details: 5 μg/mL antibody
T4 construct: Neuro2a (ATCC Cat # CCL131), and RIN-m5F (ATCC cat # CRL-11605) cell lines which express mouse SEZ6 and rat SEZ6; host or cells: Neuro2a
T4 sequence (Q7TSK2 20-991): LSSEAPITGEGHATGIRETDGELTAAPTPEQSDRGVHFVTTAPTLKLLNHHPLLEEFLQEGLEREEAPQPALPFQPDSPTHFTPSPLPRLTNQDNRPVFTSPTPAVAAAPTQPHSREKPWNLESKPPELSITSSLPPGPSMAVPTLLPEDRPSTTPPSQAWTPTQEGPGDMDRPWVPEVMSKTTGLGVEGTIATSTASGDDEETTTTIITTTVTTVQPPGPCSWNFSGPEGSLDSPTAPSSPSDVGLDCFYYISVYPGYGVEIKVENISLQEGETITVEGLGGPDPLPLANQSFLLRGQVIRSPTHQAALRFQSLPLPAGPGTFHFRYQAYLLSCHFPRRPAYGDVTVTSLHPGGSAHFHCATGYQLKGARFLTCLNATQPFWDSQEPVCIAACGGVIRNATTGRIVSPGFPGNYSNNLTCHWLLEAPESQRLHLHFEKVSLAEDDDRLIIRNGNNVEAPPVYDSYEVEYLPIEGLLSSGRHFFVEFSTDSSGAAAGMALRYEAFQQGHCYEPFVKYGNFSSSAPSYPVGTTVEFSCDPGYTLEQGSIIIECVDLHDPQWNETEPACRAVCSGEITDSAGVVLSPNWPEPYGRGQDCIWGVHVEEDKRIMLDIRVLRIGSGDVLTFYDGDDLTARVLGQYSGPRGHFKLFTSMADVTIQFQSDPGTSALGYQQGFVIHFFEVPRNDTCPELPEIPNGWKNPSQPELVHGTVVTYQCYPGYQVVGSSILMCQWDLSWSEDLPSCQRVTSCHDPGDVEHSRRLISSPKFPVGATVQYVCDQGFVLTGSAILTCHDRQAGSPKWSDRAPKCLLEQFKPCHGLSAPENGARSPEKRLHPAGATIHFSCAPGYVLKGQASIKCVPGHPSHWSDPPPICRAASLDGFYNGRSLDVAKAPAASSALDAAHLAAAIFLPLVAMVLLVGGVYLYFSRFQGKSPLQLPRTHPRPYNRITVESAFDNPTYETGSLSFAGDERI
Method: In this regard flow cytometry was performed using a FACSCanto II as per the manufacturer's instructions in order to confirm that selected SC17 antibody modulators can immunospecifically associate with human SEZ6 and to determine whether the same modulators cross-react with cynomolgus, rat and/or murine SEZ6 in addition to SEZ6L and SEZ6L2. More particularly modulators were tested for cross reactivity to murine SEZ6 and rat SEZ6 by flow cytometry against Neuro2a (ATCC Cat # CCL131), and RIN-m5F (ATCC cat # CRL-11605) cell lines which express mouse SEZ6 and rat SEZ6, respectively. For examining cross reactivity to cynomolgus SEZ6, yeast displaying the extracellular domain of cynomolgus SEZ6 (Boder et al, 1997) were used for flow cytometry analysis.
Briefly 1×10^5 cells per well of Neuro2a, RIN-5mF, or yeast displaying cynomolgus SEZ6 cells were incubated for 30 minutes with 50 μL PBS (2% FCS) buffer with 5 μg/mL antibody. Cells were washed twice with the same buffer and then incubated with 50 μL per sample DyLight 649 labeled goat-anti-mouse IgG, Fc fragment specific secondary diluted 1:200 in PBS buffer. After incubating for 15 minutes cells were washed twice with the PBS buffer and re-suspended in the same with DAPI for flow cytometry analysis of Neuro2a and Rin-m5F or buffer without DAPI for flow cytometric analysis of yeast cells with cSEZ6.

LU100, a SCLC tumor = test: Fab-saporin cytotoxicity in NTX tumor cells; assay type: cell-based, human; details: 50 and 500 pM antibody with Fab-saporin, seven days
Method: (§4) To corroborate the results of Example 14 and determine whether SEZ6 modulators can mediate toxin internalization and cell killing of human tumor cells (as opposed to engineered cells), mouse lineage-depleted NTX cells were plated and subsequently exposed to anti-SEZ6 antibodies and Fab-saporin.
(§5) NTX tumors were dissociated into a single cell suspension and plated on Primaria™ plates (BD Biosciences) in growth factor supplemented serum free media as is known in the art. After culturing the cells for one day at 37° C./5% CO2/5% O2, they were treated with a control (IgG1, IgG2a or IgG2b) or a murine SEZ6 modulator and Fab-saporin as described in Example 14. After seven days, the modulator-mediated saporin cytotoxicity was assessed by quantifying the remaining number of live cells using Cell Titer Glo.

LU80, a SCLC tumor = test: Fab-saporin cytotoxicity in NTX tumor cells; assay type: cell-based, human; details: antibody with Fab-saporin, seven days
Method: as §4, §5

LU37, a NSCLC tumor = test: Fab-saporin cytotoxicity in NTX tumor cells; assay type: cell-based, human; details: antibody with Fab-saporin, seven days
Method: as §4, §5

[2] = test system: HEK293 cells overexpressing SEZ6; test: In vitro cytotoxicity of ADC; assay type: cell-based, human
Method: The final ADC was analyzed for protein concentration (by measuring UV), aggregation (SEC), drug to antibody ratio (DAR) by reverse phase (RP) HPLC, presence of unconjugated antibody by hydrophobic interaction chromatography (HIC) HPLC, non-proteinaceous materials by RP HPLC and in vitro cytotoxicity using a SEZ6 expressing cell line.

LU80 tumor = test: SCLC NTX tumor volume in immunodeficient mice, humanized ADCs; assay type: in vivo, human; details: three injections of 1 mg/kg over seven days
Method: (§6) The ability of humanized anti-SEZ6 ADCs to reduce SCLC tumor volume was also tested. Anti-SEZ6 ADCs (hSC17.17, hSC17.24, hSC17.34 and hSC17.46), and the human IgG1 isotype control ADC (huIgG1) were administered to immunodeficient mice bearing various patient derived NTX tumors. Mice were given three injections of 1 mg/kg (indicated by the vertical lines in FIGS. 18C and 18D) over a period of seven days. Following treatment, tumor volumes and mouse weights were monitored until tumors exceeded 800 mm^3 or mice became sick. Complete and durable elimination of tumor mass was achieved by the administration of humanized anti-SEZ6 ADCs in four SCLC tumors.

LU64 tumor = test: as above; assay type: in vivo, human; details: three injections of 1 mg/kg over seven days
Method: as §6

LU117 tumor = test: as above; assay type: in vivo, human; details: three injections of 1 mg/kg over seven days
Method: as §6

Molecule: O=C1[O][Pt]2([NH][C@@H]3CCCC[C@H]3[NH]2)[O]C1=O [oxaliplatin]
- resistance to oxaliplatin, LU124OXAHIp3 (LU124OXAHIp3 cells): Resistance was maintained
- IC50 (LU124OXAHIp2 cells): 2000 to 2500 nM
- IC50 [1]: 36 nM

B1: SC17.46 (antibody, V domains shown)
VH: QVQLQQPGAELVKPGASMKLSCKASGYTFTSYWINWVKQRPGQGLEWIGNIFPDTTTTNYNEKFKSKATLTVDTSSSTAYMQLSSLTSDDSAVYYCAREYYDGTYDAMDYWGQGTSVTV
VL: SFVMTQTPKFLLVSAGDRVTITCKASQSVNNDVAWYQQKPGQSPKLLIYYASNRYTGVPDRFTGSGYGTDFTFTISTVQAEDLAVYFCQQDYSSPRTFGGGTKLEIK
modifications: Murine SC17.46 VH; Murine SC17.46 VL
- Discontinuous (SEZ6 ECD): Yes
- cross reactivity to cynomolgus SEZ6 (cynomolgus SEZ6): lack of cross reactivity
- duration of tumor growth suppression, LU50 (LU50 LCNEC tumor): 35 days
- cross reactivity to rat SEZ6 (rat SEZ6): lack of cross reactivity

B2: SC17.140: murine anti-SEZ6 antibody (antibody, V domains shown)
VH: EVQLQQSGPELMKPGASVKMSCKASGYTFTDYNMHWVKQNQGKSLEWIGEINPNTGGTGYNQKFKGKATLTVDKFSSTAFIELRSLTSEDSAIYYCTRGGYDHYWYFDVWGAGTTVTVSS
VL: QIVLTQSPAIMSASPGEKVTMTCSASSSVSYMHWYQQKSGTSPKRWIYDTSKLASGVPARFSGSGSGTSYSLTISSMEAEDAATYYCQQWSSTPPTFGSGTKLEIK
modifications: Murine SC17.140 VH; Murine SC17.140 VL
notes: murine anti-SEZ6 antibody
- IHC staining of HEK-293T cell pellets overexpressing SEZ6 compared to naïve HEK-293T cell pellets (SEZ6): specific staining
- Discontinuous (SEZ6 ECD): Yes

B3: SC17.6: murine anti-SEZ6 antibody; SC17.6 is duplicate of SC17.16 (antibody, V domains shown)
VH: EVQLQQSGPELMKPGASVKMSCKASGYTFTDYNMYWVKQNQGKSLEWIGEINPNNGGTAYNQKFRGKATLTVDKSSSTAYMELRSLTSEDSAVYYCARYDKGFDYWGQGTTLTVSS
VL: DIQMTQSPASLSVSVGETVTITCRASANINSNLVWYQQKQGKSPQLLVYAATNLADGVPSRFSGSGSGTQYSLKINSLQSEDFGNYYCQHFWGTPRTFGGGTKLEIK
modifications: Murine SC17.16 VH; Murine SC17.16 VL
- cross reactivity with SEZ6L2 (SEZ6L2; ELISA, antibody 1 μg/mL): cross-reactive
- binds SEZ6 family member SEZ6L2 (dagger) (SEZ6L2; mark in Table 5): SC17.6^†, SC17.28^†, SC17.103, SC17.109, SC17.119,
- cross reactivity to murine SEZ6 (mouse SEZ6): cross reactive
- number of tumor cells, LU100 (LU100, a SCLC tumor): reduction of tumor cells
- number of tumor cells, LU80 (LU80, a SCLC tumor): reduction in the number of tumor cells
- number of tumor cells, LU37 (LU37, a NSCLC tumor): reduction in the number of tumor cells
- cross reactivity to rat SEZ6 (rat SEZ6): cross reactive

B4: hSC17.17-ADC1 (conjugate)
VL: EIVLTQSPATLSLSPGERATLSCSASSSVSYMHWYQQKPGQAPRLLIYDTSKLPSGIPARFSGSGSGTDFTLTISSLEPEDFAVYYCQQWSSTPPTFGQGTKLEIK
VH: QVQLVQSGAEVKKPGASVKVSCKASGYTFTDYNMHWVRQAPGQGLEWMGEINPNIGGTGYNQKFKGRVTMTRDTSISTAYMELSRLRSDDTAVYYCARTYSYYSYEFAYWGQGTLVTVSS
- IC50 [2]: 11 nM
- tumor volume, LU80 (LU80 tumor): reduction
- tumor volume, LU64 (LU64 tumor): elimination
- tumor volume, LU117 (LU117 tumor): reduction
